Assay results from paper PMC2993938, “Characterization of an Antennal Carboxylesterase from the Pest Moth Spodoptera littoralis Degrading a Host Plant Odorant” (PLoS ONE, 2010).

Substrate: CC/C=C\CCOC(C)=O
Assay: GC quantification of (Z)-3-hexenol formed, nonlinear regression
Type: biochemical, Spodoptera littoralis
Conditions: 20 mM Tris pH 7.4 and 28 °C (stated for the hydrolysis assay), 5 min incubation, 1 mM to 20 mM substrate, no detergent

B1: SlCXE10 (Spodoptera littoralis) (protein)
chain: MVQVRVSEGVLEGEQVQNEYGGSFYRFRGIPYAQPPLGDLRFKAPQPIKPWQGVRQAKQFGSVCYQYNPTNLGLSNMSEDCLYVNVYTPDIKPQTPIPVMVWIHGGGFMWGSGNDDLYGPEFLIRHNVVLVTFNYRLEALGFLCLDTADVPGNAGMKDQVAALRWVKRNIANFGGNPDNITIFGESAGGGSVSHHLISPMSKGLFNRAIPQSGSTACFWATAFEPKEKAILLAKQLGFHSEDPKELYEFFKKQPCENLVKLNLQVTTSQKSYEIHFSIANEKDFGQERFFYGDIVDVIKNNLQEGVDIMTGYTKDEYTIAVSIGGPLEDILAKAQRYREFFAPKLLHNYGTITDQLEAARKLQKFYFKNEKVSKDNIDNLLNYMSVDMFVYGVMFAAKLYSRKNKVYVYKFNCFSERNVLANAFCVGHLTDDRSVVSHADDLAYLFPVKLFTQKVNKTSVTFKLIDRVTTLWTNFAKYGNPTPDDSLGVKWLPYTLAAQDYMDIGNTLVPGNSPDKEELDFWESVLHQHLPKFSTLNQ
notes: complete ORF (no signal peptide), C-terminal 6His tag kept (pBlueBac4.5/V5-His TOPO), baculovirus / Sf21 cells, Ni-NTA purified, about 60 kDa (predicted 61 kDa)
B1 was tested, and the Km was 11.4 ± 4.8 mM.
